Among the data in the RNAGym collection of RNA variant scans (doi:10.7554/elife.80360) are self-cleavage values, retold here.

The labels stand for the following.
B1: Hairpin Ribozyme (parent)
chain: GUCCUCUUUCACGUGCGCGUGAAAGAGAGAAGUGAACCAGAGAAACACACGUUGUGGUAUAUUACCUGGUA

Variants of B1 are the subject of this series. Put plainly: self-cleavage, relative activity (ratio to wild type); higher = more cleavage; co-transcriptional.
As for GUCCUCUUUCACGUGCGCGUGAAAGAGAGAAGCGAACCAGAGAAACACACGUUGUGGUCUAUUACCUGGUA [U33C A59C], the self-cleavage was 0.198.

GUCCUCUUUCACGUGCGCGUGAAAGAGAGAAGCGAACCAGAGAAACACACGUUGUGGUUUAUUACCUGGUA [U33C A59U]: the self-cleavage worked out at 0.128.

Regarding GUCCUCUUUCACGUGCGCGUGAAAGAGAGAAGCGAACCAGAGAAACACACGUUGUGGUGUAUUACCUGGUA [U33C A59G], the self-cleavage was 0.083.

For GUCCUCUUUCACGUGCGCGUGAAAGAGAGAAGAGAACCAGAGAAACACACGUUGUGGUAUCUUACCUGGUA [U33A A61C], the self-cleavage stood at 0.127.

GUCCUCUUUCACGUGCGCGUGAAAGAGAGAAUUGAACCAGAGAAACACACGCUGUGGUAUAUUACCUGGUA [G32U U52C]: the self-cleavage was determined as 0.144.

Consider GUCCUCUUUCACGUGCGCGUGAAAGAGAGAAGAGAACCAGAGAAACACACGUUGGGGUAUAUUACCUGGUA [U33A U55G], for which the self-cleavage turned out to be 0.0798.

GUCCUCUUUCACGUGCGCGUGAAAGAGAGAAUAGAACCAGAGAAACACACGUUGUGGUAUAUUACCUGGUA [G32U U33A]: the self-cleavage came out at 0.148.

Consider GUCCUCUUUCACGUGCGCGUGAAAGAGAGAAUCGAACCAGAGAAACACACGUUGUGGUAUAUUACCUGGUA [G32U U33C], for which the self-cleavage was 0.222.

GUCCUCUUUCACGUGCGCGUGAAAGAGAGAAGAGAACCAGAGAAACACCCGUUGUGGUAUAUUACCUGGUA [U33A A49C]: the self-cleavage amounted to 0.163.

For the variant GUCCUCUUUCACGUGCGCGUGAAAGAGAGAAGAGAACCAGAGAAACACACGUUGUGGUAUAUUACCGGGUA [U33A U67G], the self-cleavage came to 0.169.

Consider GUCCUCUUUCACGUGCGCGUGAAAGAGAGAAGAGAACGAGAGAAACACACGUUGUGGUAUAUUACCUGGUA [U33A C38G], for which the self-cleavage was found to be 0.128.

As to GUCCUCUUUCACGUGCGCGUGAAAGAGAGAAGAGAACAAGAGAAACACACGUUGUGGUAUAUUACCUGGUA [U33A C38A], the self-cleavage worked out at 0.13.

Regarding GUCCUCUUUCACGUGCGCGUGAAAGAGAGAAGAGGACCAGAGAAACACACGUUGUGGUAUAUUACCUGGUA [U33A A35G], the self-cleavage was found to be 0.17.

For GUCCUCUUUCACGUGCGCGUGAAAGAGAGAAGAGUACCAGAGAAACACACGUUGUGGUAUAUUACCUGGUA [U33A A35U], the self-cleavage turned out to be 0.131.

For the variant GUCCUCUUUCACGUGCGCGUGAAAGAGAGAAGAGAACCAGAGAAACACACGUAGUGGUAUAUUACCUGGUA [U33A U53A], the self-cleavage is 0.103.

On to GUCCUCUUUCACGUGCGCGUGAAAGAGAGAAGAGAACCAGAGAAACACACGUGGUGGUAUAUUACCUGGUA [U33A U53G], for which the self-cleavage was 0.0866.

Regarding GUCCUCUUUCACGUGCGCGUGAAAGAGAGAAGAGAACCAGAGAAACACACGUCGUGGUAUAUUACCUGGUA [U33A U53C], the self-cleavage came out at 0.264.

Turning to GUCCUCUUUCACGUGCGCGUGAAAGAGAGAAGCGAACCAGAGAAAGACACGUUGUGGUAUAUUACCUGGUA [U33C C46G], the self-cleavage worked out at 0.187.

GUCCUCUUUCACGUGCGCGUGAAAGAGAGAAGCGAACCAGAGAAAUACACGUUGUGGUAUAUUACCUGGUA [U33C C46U]: the self-cleavage was 0.0782.

As for GUCCUCUUUCACGUGCGCGUGAAAGAGAGAAGCGAACGAGAGAAACACACGUUGUGGUAUAUUACCUGGUA [U33C C38G], the self-cleavage was found to be 0.123.

In the case of GUCCUCUUUCACGUGCGCGUGAAAGAGAGAAUUGAACCAGAGAAACACACGUUGAGGUAUAUUACCUGGUA [G32U U55A], the self-cleavage is 0.0859.

As for GUCCUCUUUCACGUGCGCGUGAAAGAGAGAAUUGAACCAGAGAAACACACGUUGUGGUAUAGUACCUGGUA [G32U U62G], the self-cleavage was 0.182.

For the variant GUCCUCUUUCACGUGCGCGUGAAAGAGAGAAGCGAACCCGAGAAACACACGUUGUGGUAUAUUACCUGGUA [U33C A39C], the self-cleavage worked out at 0.171.

Regarding GUCCUCUUUCACGUGCGCGUGAAAGAGAGAAGCGAACCACAGAAACACACGUUGUGGUAUAUUACCUGGUA [U33C G40C], the self-cleavage was 0.0896.

Take GUCCUCUUUCACGUGCGCGUGAAAGAGAGAAGAGAACCAGGGAAACACACGUUGUGGUAUAUUACCUGGUA [U33A A41G]: the self-cleavage turned out to be 0.0913.

For the variant GUCCUCUUUCACGUGCGCGUGAAAGAGAGAAGAGAACCAGCGAAACACACGUUGUGGUAUAUUACCUGGUA [U33A A41C], the self-cleavage worked out at 0.0532.

As to GUCCUCUUUCACGUGCGCGUGAAAGAGAGAAGCGAACCAGAGAAACACACGUUGUGGUAUAUUUCCUGGUA [U33C A64U], the self-cleavage was 0.154.

For GUCCUCUUUCACGUGCGCGUGAAAGAGAGAAGAGAACCAGAGAAACACAGGUUGUGGUAUAUUACCUGGUA [U33A C50G], the self-cleavage was found to be 0.211.

With GUCCUCUUUCACGUGCGCGUGAAAGAGAGAAGCGAACCAGAGAAACUCACGUUGUGGUAUAUUACCUGGUA [U33C A47U], the self-cleavage came out at 0.0811.

Turning to GUCCUCUUUCACGUGCGCGUGAAAGAGAGAAGCGAACCAGAGAAACACACGUUGCGGUAUAUUACCUGGUA [U33C U55C], the self-cleavage was found to be 0.173.

For GUCCUCUUUCACGUGCGCGUGAAAGAGAGAAGAGAAGCAGAGAAACACACGUUGUGGUAUAUUACCUGGUA [U33A C37G], the self-cleavage was found to be 0.182.

As for GUCCUCUUUCACGUGCGCGUGAAAGAGAGAAGAGAAUCAGAGAAACACACGUUGUGGUAUAUUACCUGGUA [U33A C37U], the self-cleavage amounted to 0.109.

As to GUCCUCUUUCACGUGCGCGUGAAAGAGAGAAGCGAACCAGAGAAACACACGUUGUGGUAUAUUACCUGGUU [U33C A71U], the self-cleavage turned out to be 0.144.

Turning to GUCCUCUUUCACGUGCGCGUGAAAGAGAGAAGCGAACCAGAGAAACACACGCUGUGGUAUAUUACCUGGUA [U33C U52C], the self-cleavage was determined as 0.177.

As to GUCCUCUUUCACGUGCGCGUGAAAGAGAGAAGCGAACCAGAGAAACACACGUUGUGGAAUAUUACCUGGUA [U33C U58A], the self-cleavage worked out at 0.0907.

Consider GUCCUCUUUCACGUGCGCGUGAAAGAGAGAAGAUAACCAGAGAAACACACGUUGUGGUAUAUUACCUGGUA [U33A G34U], for which the self-cleavage was found to be 0.134.

For the variant GUCCUCUUUCACGUGCGCGUGAAAGAGAGAAGCUAACCAGAGAAACACACGUUGUGGUAUAUUACCUGGUA [U33C G34U], the self-cleavage came out at 0.348.

As to GUCCUCUUUCACGUGCGCGUGAAAGAGAGAAGAGAACCAGAGAAACACACGUUGUGGUAAAUUACCUGGUA [U33A U60A], the self-cleavage was 0.0246.
